The record followed here is patent publication US20080038735A1.

In this assay the target is TNFa, P01375. Kind of assay: not stated (told as a known affinity); low affinity dAb, known affinity, lower bound. To be noted: remark: other sources report otherwise.
Sequence of TNFa, P01375 (P01375 77-233 limits assumed): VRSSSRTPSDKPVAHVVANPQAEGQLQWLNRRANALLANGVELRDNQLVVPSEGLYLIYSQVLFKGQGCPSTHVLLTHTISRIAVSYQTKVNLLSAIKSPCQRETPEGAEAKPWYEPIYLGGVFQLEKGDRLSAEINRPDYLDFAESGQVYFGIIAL

B1: Vk(TAR1-5) (protein)
VL: DIQMTQSPSSLSASVGDRVTITCRASQSIFMNLLWYQQKPGKAPKLLIYNASVLQSGVPSRFSGSGSGTDFTLTISSLQPEDFATYYCQQVVWRPFTFGQGTKVEIKR
modifications: here or on the partner: biotinylated (sites not given)
Take B1: the Kd was above 5 µM.

The term Kd denotes the constant that tells how readily two partners part at equilibrium. Lower therefore signals tighter binding.
